The record followed here is article doi:10.1101/2023.03.13.532365.

The target of this experiment is *DsCDTCM, exported bifunctional cyclohexadienyl dehydratase-chorismate mutase fusion enzyme of Duganella sacchari (Duganella sacchari). Put plainly: crystal structure.

In the case of “*DsCDTCM, exported bifunctional cyclohexadienyl dehydratase-chorismate mutase fusion enzyme of Duganella sacchari”, the stoichiometry N came to 2.

The stoichiometry N is a count of units in the complex or per binding partner.
